Measurements published in patent CN114539423A (dated 2022).

How the values were obtained:
[1] = target: CD3 (on human T cells) (human); experiment: flow cytometry titration on human T cells, same method as for Nalm6, fitted in GraphPad Prism8
[2] = target: T1, CD19 (on Nalm6 leukemia cells) (human, UniProt P15391 20-556); experiment: flow cytometry titration (0.05-100 nM) on Nalm6 cells, anti-His then APC anti-mouse IgG detection, fitted in GraphPad Prism8
T1 construct: whole, on cells; also called CD19抗原; Nalm6上的CD19抗原
T1 sequence (looked up): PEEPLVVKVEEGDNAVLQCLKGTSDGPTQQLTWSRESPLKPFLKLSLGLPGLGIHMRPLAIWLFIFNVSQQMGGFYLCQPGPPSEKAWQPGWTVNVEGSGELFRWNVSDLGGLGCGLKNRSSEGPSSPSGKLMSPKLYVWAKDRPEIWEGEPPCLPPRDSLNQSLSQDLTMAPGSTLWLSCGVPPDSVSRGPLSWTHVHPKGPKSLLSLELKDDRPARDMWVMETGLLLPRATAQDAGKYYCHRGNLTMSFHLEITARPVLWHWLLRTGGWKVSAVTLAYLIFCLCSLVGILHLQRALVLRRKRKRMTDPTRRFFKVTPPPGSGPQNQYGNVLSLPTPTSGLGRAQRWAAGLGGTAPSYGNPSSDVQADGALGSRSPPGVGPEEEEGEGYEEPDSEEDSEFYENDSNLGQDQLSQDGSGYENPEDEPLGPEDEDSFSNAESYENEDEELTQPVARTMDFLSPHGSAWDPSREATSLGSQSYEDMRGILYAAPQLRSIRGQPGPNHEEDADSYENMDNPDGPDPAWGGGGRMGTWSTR

Chain of CD3 (on human T cells) (human) (P07766 23-207, chain 1 of 4): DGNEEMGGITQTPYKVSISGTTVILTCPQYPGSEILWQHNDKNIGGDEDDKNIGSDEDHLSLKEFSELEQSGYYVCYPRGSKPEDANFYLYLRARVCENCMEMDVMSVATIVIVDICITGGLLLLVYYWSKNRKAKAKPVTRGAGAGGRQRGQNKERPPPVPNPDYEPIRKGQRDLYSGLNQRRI
Chain of CD3 (on human T cells) (human) (P09693 23-182, chain 2 of 4, further chain): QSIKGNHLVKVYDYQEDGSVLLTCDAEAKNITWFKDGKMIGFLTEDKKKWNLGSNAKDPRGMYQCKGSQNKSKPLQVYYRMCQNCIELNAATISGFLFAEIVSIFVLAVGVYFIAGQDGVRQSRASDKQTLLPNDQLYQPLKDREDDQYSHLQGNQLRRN
Chain of CD3 (on human T cells) (human) (P04234 22-171, chain 3 of 4, further chain): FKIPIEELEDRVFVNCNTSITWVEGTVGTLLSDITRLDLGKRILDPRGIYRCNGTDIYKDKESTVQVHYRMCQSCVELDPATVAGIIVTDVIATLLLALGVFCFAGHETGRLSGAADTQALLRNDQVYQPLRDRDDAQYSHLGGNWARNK
Chain of CD3 (on human T cells) (human) (P20963 22-164, chain 4 of 4, further chain): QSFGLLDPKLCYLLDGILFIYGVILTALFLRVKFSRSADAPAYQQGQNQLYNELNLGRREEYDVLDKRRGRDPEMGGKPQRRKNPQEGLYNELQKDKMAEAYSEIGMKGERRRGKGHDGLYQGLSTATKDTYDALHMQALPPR

Kd [1]: 19.2 nM
Kd [2]: 11.7 nM
B1: CD19scFv-CD80-CD3scFv三特异性融合蛋白 (other)
chain: HHHHHHLEDIVLTQSPKFMSTSVGDRVSVTCKASQNVGTNVAWYQQKPGQSPKPLIYSATYRNSGVPDRFTGSGSGTDFTLTITNVQSKDLADYFCQQYNRYPYTSGGGTKLEIKRGGGGSGGGGSGGGGSQVQLQQSGAELVRPGSSVKISCKASGYAFSSYWMNWVKQRPGQGLEWIGQIYPGDGDTNYNGKFKGQATLTADKSSSTAYMQLSGLTSEDSAVYFCARKTISSVVDFYFDYWGQGTTLTVSSEFGGGGSGGGGSGGGGSGGGGSVIHVTKEVKEVATLSCGHNVSVEELAQTRIYWQKEKKMVLTMMSGDMNIWPEYKNRTIFDITNNLSIVILALRPSDEGTYECVVLKYEKDAFKREHLAEVTLSVKADFPTPSISDFEIPTSNIRRIICSTSGGFPEPHLSWLENGEELNAINTTVSQDPETELYAVSSKLDFNMTTNHSFMCLIKYGHLRVNQTFNWNTTKQEHFPDNGGGGSGGGGSGGGGSGGGGSVDADIELTQSPAIMSASPGEKVTMTCSASSSVSYMNWYQQKSGTSPKRWIYDTSKLASGVPARFSGSGSGTSYSLTISGMEAEDAATYYCQQWSSNPFTFGSGTKLELKRGGGGSGGGGSGGGGSQVQLQQSGAELARPGASVKMSCKASGYTFTRYTMHWVKQRPGQGLEWIGYINPSRGYTNYNQKFKDKATLTTDKSSSTAYMELTRLTSEDSAVYYCARYYDDHYSLDYWGQGTTVTVSSWSHPQFEK
notes: Expressed in ExpiCHO-S cells; also called 19TriTE; CD19scFv-CD80-CD3scFv重组融合蛋白
